Assay results published in patent publication US20240390512A1, “METHODS OF TREATING CHEMOTHERAPY-RESISTANT CANCER WITH AN ANTIBODY-DRUG CONJUGATE” (DAIICHI SANKYO COMPANY, LIMITED, priority 2021, published 2024).

T1: human CDH6 (full-length and EC domain deletion mutants) (Homo sapiens, UniProt P55285)
T1 construct: each one of the five EC domains could be deleted from full-length human CDH6; 3xFLAG (deletion mutants only, from the vector p3×FLAG-CMV-9); expressed in transfected cells; host or cells: 293α cells
T1 sequence (P55285 160-790): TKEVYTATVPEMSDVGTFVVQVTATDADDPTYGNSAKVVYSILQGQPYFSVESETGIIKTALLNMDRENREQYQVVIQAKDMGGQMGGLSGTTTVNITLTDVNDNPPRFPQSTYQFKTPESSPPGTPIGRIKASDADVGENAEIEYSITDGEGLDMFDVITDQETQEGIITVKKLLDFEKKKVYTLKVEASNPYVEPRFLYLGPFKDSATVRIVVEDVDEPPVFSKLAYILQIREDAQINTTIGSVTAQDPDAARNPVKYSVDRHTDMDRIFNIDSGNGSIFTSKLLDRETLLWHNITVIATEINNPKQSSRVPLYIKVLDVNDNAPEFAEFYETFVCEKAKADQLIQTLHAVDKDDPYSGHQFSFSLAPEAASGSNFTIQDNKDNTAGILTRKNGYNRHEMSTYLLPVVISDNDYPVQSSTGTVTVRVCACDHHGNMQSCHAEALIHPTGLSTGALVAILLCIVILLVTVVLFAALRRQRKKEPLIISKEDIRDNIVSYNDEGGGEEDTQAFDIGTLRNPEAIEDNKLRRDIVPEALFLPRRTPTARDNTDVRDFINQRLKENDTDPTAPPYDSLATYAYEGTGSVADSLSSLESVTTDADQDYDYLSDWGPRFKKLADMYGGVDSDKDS

T2: human CDH6 (full-length and EC domain deletion mutants) (Homo sapiens, UniProt P55285, DEL487-608)
T2 construct: each one of the five EC domains could be deleted from full-length human CDH6; 3xFLAG (deletion mutants only, from the vector p3×FLAG-CMV-9); expressed in transfected cells; host or cells: 293α cells
T2 sequence (P55285 with tags, fused parts or gaps DEL487-608): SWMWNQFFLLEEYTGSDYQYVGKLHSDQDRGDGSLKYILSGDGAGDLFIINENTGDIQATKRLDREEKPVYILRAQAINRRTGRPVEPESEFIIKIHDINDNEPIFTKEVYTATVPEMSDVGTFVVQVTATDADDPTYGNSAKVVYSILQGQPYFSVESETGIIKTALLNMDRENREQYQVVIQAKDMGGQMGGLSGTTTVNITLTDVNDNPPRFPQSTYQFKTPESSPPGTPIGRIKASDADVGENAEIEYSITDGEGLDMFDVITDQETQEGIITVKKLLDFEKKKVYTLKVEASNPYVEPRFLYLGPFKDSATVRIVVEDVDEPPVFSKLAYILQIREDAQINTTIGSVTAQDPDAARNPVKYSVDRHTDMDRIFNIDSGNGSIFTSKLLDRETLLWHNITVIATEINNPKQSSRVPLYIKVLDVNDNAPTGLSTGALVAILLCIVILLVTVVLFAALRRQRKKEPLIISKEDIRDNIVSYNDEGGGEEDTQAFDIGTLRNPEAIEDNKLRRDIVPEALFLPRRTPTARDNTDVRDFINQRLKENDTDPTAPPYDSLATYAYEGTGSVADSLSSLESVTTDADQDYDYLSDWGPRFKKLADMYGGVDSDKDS


Columns and labels:
[1] = target: T1, human CDH6 (full-length and EC domain deletion mutants); test: Epitope analysis of rat anti-CDH6 antibody by flow cytometry using domain deletion mutants; assay type: binding; conditions: flow cytometry; transfected 293α cells; antibody 20 nM
Source text: (§1) The full-length extracellular region of human CDH6 has five extracellular domains, EC1 (SEQ ID NO: 2), EC2 (SEQ ID NO: 3), EC3 (SEQ ID NO: 4), EC4 (SEQ ID NO: 5), and EC5 (SEQ ID NO: 6). A gene to be expressed such that each one of the five EC domains could be deleted from full-length human CDH6 was synthesized by GeneArt, and incorporated into p3×FLAG-CMV-9 vectors for mammalian expression (Sigma-Aldrich Co. LLC) according to a method known to a person skilled in the art in order to produce an expression vector for each domain deletion mutant lacking any one of EC1 to EC5.
(§2) The epitopes to which the rat anti-human CDH6 antibodies bound were identified by flow cytometry analysis using a 293α cell line transfected with each EC domain deletion vector. Using Lipofectamine 2000 (Thermo Fisher Scientific Inc.), each domain deletion mutant expression vector produced in Reference Example 2)-2-1, or pcDNA3.1-hCDH6 for the expression of full-length human CDH6 was transiently introduced into a 293α cell line, which was a cell line derived from HEK293 cells by stable transfection with integrin αv and integrin […] expression vectors. The cells were cultured overnight under conditions of 37° C. and 5% CO2, and thereafter, a cell suspension was prepared. The suspension of the transfected 293α cells was centrifuged, and a supernatant was then removed. Thereafter, the cells were suspended by the addition of each of the 4 rat anti-CDH6 monoclonal antibodies (clone Nos: rG019, rG055, rG056 and rG061), which had been prepared in Reference Example 1)-7, or rat IgG control (R&D Systems, Inc.) (final concentration: 20 nM). The cells were left standing at 4° C. for 1 hour. The cells were washed twice with PBS supplemented with 5% FBS, and then suspended by the addition of Anti-Rat IgG (whole molecule)-FITC antibody produced in rabbit (Sigma-Aldrich Co. LLC) that had been 50-fold diluted with PBS supplemented with 5% FBS. The cells were left standing at 4° C. for 1 hour. The cells were washed twice with PBS supplemented with 5% FBS, followed by detection using a flow cytometer (Canto II; BD Biosciences). The data was analyzed using FlowJo (Tree Star, Inc.). In the histograms of FIGS. 2-1 to 2-6, the abscissa depicts FITC fluorescence intensity indicating the amount of the antibody bound, and the ordinate depicts cell count. […] Fluorescence intensity is enhanced when the antibody binds to full-length hCDH6 or each EC domain deletion mutant on the surface of cells. The rat IgG control binds to none of the transfected cells.

[2] = target: T2, human CDH6 (full-length and EC domain deletion mutants); test: as above; assay type: binding; conditions: flow cytometry; transfected 293α cells; antibody 20 nM
Source text: as §1, §2

Molecule | binding to EC1 deletion mutant [1] | binding to EC5 deletion mutant [2]
rG055: rat anti-human CDH6 monoclonal antibody produced by hybridoma rG055; variable regions SEQ ID NO: 20 and 25 (antibody, listed as Rattus norvegicus, V domains shown) VL: DVQMTHSPSYLAASPGESVSISCKTSKNISNYLVWYQQKPGEAYKLLIYSGSTLQSGTPSRFSGSGSGTDFTLTIRSLEPEDFGLYFCQQYYEKPFTFGSGTKLEIKRA VH: EVQLQESGPGLVRPSQSLSLSCSVTDYSITSNYWGWIRRFPGNKMEWMGYITYSGYTSYNPSLQSRISITRDTSKNQFFLQLNSVTAEDTATYYCARSINHGGYSYVVDAWGPGASVTVSS | bind | bind
rG019: rat anti-human CDH6 monoclonal antibody produced by hybridoma rG019; variable regions SEQ ID NO: 10 and 15 (antibody, listed as Rattus norvegicus, V domains shown) VL: DIQMTQSPSLLSASVGDRVTLNCKASQNIYKNLAWYQQKLGEGPKLLIYDANTLQTGIPSRFSGSGSGSDFTLTISSLQPEDVATYFCQQYYSGWAFGGVTNLELKRA VH: QVQLQQSGAELVKPGSSVKISCKASGYTFTRNFMHWIKQQPGNGLEWIGWIYCGDGETEYNQKFNGKATLTADRSSSTAYMELSRLTSEDSAVYFCARGVYGGFAGGYFDFWGQGVMVTVSS | bind | bind

Next, values leading:

binding to EC1 deletion mutant [1] | binding to EC5 deletion mutant [2] | Molecule
bind | bind | rG056: rat anti-human CDH6 monoclonal antibody produced by hybridoma rG056; variable regions SEQ ID NO: 30 and 35 (antibody, listed as Rattus norvegicus, V domains shown) VL: DVQMTQSPSSLAASPGESVSISCRATKSIGIYLAWYQQKPGKTFKLLIYSGSTLQSGTPSRFSGSGSGTDFTLTIRSLEPEDFGLYFCQQFYENPFTFGSGTKLEIRRA VH: EVQLQESGPGLVKPSQSLSLTCSVTDYSITTYFWGWIRKFPGNKMEWMGYMSYRGGTSYNPSLKSRISITRDTSKNQFFLQLNSVTTEDTATYYCARCPNYGGHSLVFDYWGQGVMVTVSS
bind | bind | rG061: rat anti-human CDH6 monoclonal antibody produced by hybridoma rG061; variable regions SEQ ID NO: 40 and 45 (antibody, listed as Rattus norvegicus, V domains shown) VL: DVQMTQSPSYLAASPGESVSISCKATKSISNYLAWYQQKPGEAYKVLIYSGSTLQSGTPSRFSGSGSGTDFTLTIRSLEPEDFGLYSCQQYYEKPLTFGSGTKLEIKRA VH: EVQLQESGPGLVKPSQSLSLTCSVTGYSITTYYWGWIRKFPGNKMEWMGYISYSGRTSYNPSLKSRMSITRDASKNQFFLQLNSVTTDDTATYYCARSPINHGGYWYFDFWGPGTMVTVSS
